Measurements as given in patent publication US20170267986A1, “GENERATION OF MANNOSE-6-PHOSPHATE CONTAINING RECOMBINANT ALPHA-N-ACETYL GLUCOSAMINIDASE” (SHIRE HUMAN GENETIC THERAPIES, INC., priority 2014, published 2017).

What was measured:
rhNaglu = molecular target: T1, rhNaglu (Homo sapiens, UniProt P54802); assay: Naglu activity assay with various inhibitors (4MU-GlcNAc fluorescent substrate); format: biochemical; details: added at 0.0625, 0.25, 1, 4 and 8 mM; 37° C., 1 hour, pH 4.5
T1 construct: The N-terminal 23 amino acids are cleaved as the precursor protein enters the endoplasmic reticulum, resulting in a mature form; made in house; host or cells: human fibrosarcoma HT1080 cell clone over-expressing rhNaglu
T1 sequence (P54802 24-743): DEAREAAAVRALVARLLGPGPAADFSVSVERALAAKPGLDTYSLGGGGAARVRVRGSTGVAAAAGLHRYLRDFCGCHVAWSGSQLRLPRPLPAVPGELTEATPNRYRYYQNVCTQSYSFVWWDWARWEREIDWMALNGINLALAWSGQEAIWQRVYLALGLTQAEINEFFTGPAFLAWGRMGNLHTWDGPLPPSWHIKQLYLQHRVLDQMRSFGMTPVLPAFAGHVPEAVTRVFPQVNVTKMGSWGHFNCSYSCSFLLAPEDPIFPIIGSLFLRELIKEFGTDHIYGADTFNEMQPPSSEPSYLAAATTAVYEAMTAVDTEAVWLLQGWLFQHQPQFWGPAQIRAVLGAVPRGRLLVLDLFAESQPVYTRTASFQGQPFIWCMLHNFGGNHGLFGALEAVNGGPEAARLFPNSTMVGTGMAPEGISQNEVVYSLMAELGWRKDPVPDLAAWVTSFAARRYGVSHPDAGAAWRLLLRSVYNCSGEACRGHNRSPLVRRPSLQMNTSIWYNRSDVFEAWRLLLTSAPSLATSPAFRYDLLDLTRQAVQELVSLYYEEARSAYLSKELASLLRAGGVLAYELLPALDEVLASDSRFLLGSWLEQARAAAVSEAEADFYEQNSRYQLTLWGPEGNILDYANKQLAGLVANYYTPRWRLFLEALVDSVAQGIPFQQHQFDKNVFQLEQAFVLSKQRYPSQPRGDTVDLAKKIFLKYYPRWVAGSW
Protocol: A 10 mM stock of Naglu activity substrate solution was prepared by dissolving 5 mg of substrate, i.e., 4-methylumbelliferyl-N-acetyl-α-D-glucosaminide, in 250 μl of 100% DMSO. Naglu activity assay reaction buffer (0.1 M sodium acetate, 0.5 mg/ml BSA, pH 4.5) was then added to bring the volume up to 1318 μl. This 10 mM substrate stock solution was then diluted 10 fold with reaction buffer to make the final 1 mM substrate solution.
Samples and controls were pre-diluted in reaction buffer. 10 μl of each pre-diluted sample/control were applied in duplicate wells on a black clear bottom 96 well plate. 75 μl of 1 mM substrate solution containing various concentrations of inhibitors were added to each well. The plates were sealed with plate sealer and wrapped with aluminum foil. The plates were then placed in a Boekel Jitterbug Microplate Incubator Shaker (Cole-Parmer, Vernon Hills, Ill.) and shaken (setting at #1) at 37° C. for 1 hour. 200 μl of Stop Buffer (0.2 M Glycine, pH 10.7) were then added to all of the wells and fluorescence emission (excitation/emission at 360 nm/460 nm, respectively) was measured using a SpectraMax® Plus M2 plate reader from Molecular Devices (Sunnyvale, Calif.).
To further confirm that rhNaglu could hydrolyze UDP-GlcNAc, we investigated whether UDP-GlcNAc inhibited the hydrolysis by rhNaglu of the fluorescent substrate 4MU-GlcNAc (4-methylumbelliferyl-N-acetyl-α-D-glucosaminide) in a Naglu activity assay. Briefly, UDP-GlcNAc, as well as GlcNAc, UDP-GalNAc and Glucosamine, were added to the Naglu activity assay at 0.0625, 0.25, 1, 4 and 8 mM concentrations. The fluorescence emitted from these samples was compared to control samples only including rhNaglu and 4MU-GlcNAc.

[1] = molecular target: Soluble cation-independent mannose-6-phosphate receptor (sCI-M6PR); assay: plate-based sCI-M6PR binding ELISA (sCI-M6PR coated, HRP anti-Naglu polyclonal #2957 detection); KD extrapolated from binding curves
CI-M6PR = molecular target: T2, CI-M6PR (Homo sapiens, UniProt P11717); assay: Plate based sCI-M6PR binding assay (ELISA)
T2 construct: the secreted sCI-M6PR was purified from the tissue culture medium; made in house
Protocol: (1) Generation of sCI-M6PR (soluble CI-M6PR)—Full length M6PR was expressed in genetically modified tissue culture cells, and the secreted sCI-M6PR was purified from the tissue culture medium using an aminophenyl-M6P conjugated resin (Beljaars et al., 1999). N-terminal sequencing and LC/MS/MS analysis of the obtained protein confirmed the amino acid sequence of the sCI-M6PR, and MALDI analysis confirmed that its molecular mass was 279,492 Da.
100 μl of sCI-M6PR(2.5 μg/ml) in DPBS were coated on MaxiSorp® Nunc-Immuno flat-bottom 96-well plates (Thermo Fisher Scientific, Inc., Sunnyvale, Calif.). After incubation for 1 hour at 37° C., the plates was washed with ELISA wash buffer (0.1% Tween-20 in DPBS). sCI-M6PR coated wells were blocked with 300 μl ELISA blocking buffer (DPBS, 2% BSA, 0.05% Tween 20) at 37° C. for 1 hour. Appropriate dilutions of sGNPT-modified Naglu-Kif (and rhNaglu as control) were made in blocking buffer and added to the wells. After 1 hour incubation at 37° C., the plates were washed with ELISA wash buffer, and 100 μl of HRP-conjugated rabbit anti-Naglu polyclonal antibody #2957 diluted in blocking buffer were added. After 1 hour incubation at 37° C., the plates was washed again with ELISA wash buffer. The ELISA was developed using TMB peroxidase substrate solution (KPL, Inc., Gaithersburg, Mass.) by following the manufacturer's protocol.
sGNPT transfers the phospho-GlcNAc group from UDP-GlcNAc to mannose sugar, and the resulting mannose-6-phosphate-GlcNAc is called the Capped-M6P. During the normal intracellular glycosylation process, the decapping enzyme (N-acetylglucosamine 1-phosphodiester α-N-acetyglucosaminidase) removes the GlcNAc from the Capped-M6P, to generate M6P. But without decapping, the Capped-M6P can also bind to CI-M6PR. Capped-M6P binds to domain 5 of CI-M6PR rather than to domain 3 or 9, as M6P does (Bohnsack et al. 2009). The amount of Capped-M6P on Naglu-Kif can be indirectly evaluated using a CI-M6PR plate binding assay. In this binding assay the affinity with which Naglu-Kif bound to CI-M6PR increased in proportion to the amount of sGNPT used (35 μg, 70 μg and 140 (corresponding to about 4.2 μM) (green, red and empty circle in FIG. 8, respectively)) to modify Naglu-Kif and thus the extent of Capped-M6P found on Naglu-Kif (FIG. 8). […] These binding reactions were repeated in two different buffer systems, i.e., in a sodium acetate buffer (40 mM NaAc pH 6.5, 10 mM MnCl2, 10 mM MgCl2) and in a Tris buffer (50 mM Tris pH 7.4, 10 mM MnCl2, 10 mM MgCl2), which gave similar results. Contrary to Naglu-Kif, rhNaglu was not phosphorylated by sGNPT under the same conditions due to the lack of high-mannose glycans.

In the case of `CC(=O)N[C@H]1C(O)O[C@H](CO)[C@@H](O)[C@@H]1O` (stereo partly drawn) [GlcNAc, N-acetylglucosamine], the “inhibition of rhNaglu activity toward 4MU-GlcNAc” value (“inhibition” for short) (rhNaglu) is reported as “Inhibition”.

`N[C@H]1C(O)O[C@H](CO)[C@@H](O)[C@@H]1O` (stereo partly drawn) [glucosamine] was tested, and the “inhibition” value (rhNaglu) was “not inhibited”.

“Naglu-Kif (high-mannose-containing recombinant human Naglu) modified in vitro with 35 µg sGNPT (from UniProt P54802 24-743) (enzyme)” showed a Kd [1] of 15.3 nM.

“Naglu-Kif (high-mannose-containing recombinant human Naglu) modified in vitro with 70 µg sGNPT (from UniProt P54802 24-743) (enzyme)” gave a Kd [1] of 5.92 nM.

Molecule “Naglu-Kif (high-mannose-containing recombinant human Naglu) modified in vitro with 140 µg sGNPT (from UniProt P54802 24-743) (enzyme)” has a Kd [1] of 1.48 nM.

With “uridine diphosphate N-acetyl galactosamine [UDP-GalNAc]” the “inhibition” value (rhNaglu) was “not inhibited”.

B1: Naglu-Kif: high-mannose-containing recombinant human Naglu purified from HT1080 cells grown with 2 mg/l Kifunensine; tested after sGNPT modification (protein)
chain: T1 sequence (P54802 24-743)
In the case of B1, the Kd (CI-M6PR; Naglu-Kif modified with 35 μg sGNPT) is reported as 15.3 nM, the Kd (CI-M6PR; Naglu-Kif modified with 70 μg sGNPT) is reported as 5.92 nM and the Kd (CI-M6PR; Naglu-Kif modified with 140 sGNPT (about 4.2 μM)) is reported as 1.48 nM.
